Experimental data: the supplement of paper PMC10065799, “High-throughput profiling of sequence recognition by tyrosine kinases and SH2 domains using bacterial peptide display” (eLife, 2023)

target: Jak2 (UniProt O60674); experiment: phosphorylation enrichment, bacterial display (enrichment ratio); higher = better substrate or ligand; peptides without Tyr show the background
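Further: 11-residue human phosphosite peptides and single-mutation variants displayed on the E. coli surface, counted by deep sequencing, each peptide's frequency after selection divided by its frequency in the unselected input library; frequency after pTyr selection over input frequency; kinase dosed for 20-30% of maximal phosphorylation in three min.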

Chain of Jak2 (O60674 whole entry, looked up): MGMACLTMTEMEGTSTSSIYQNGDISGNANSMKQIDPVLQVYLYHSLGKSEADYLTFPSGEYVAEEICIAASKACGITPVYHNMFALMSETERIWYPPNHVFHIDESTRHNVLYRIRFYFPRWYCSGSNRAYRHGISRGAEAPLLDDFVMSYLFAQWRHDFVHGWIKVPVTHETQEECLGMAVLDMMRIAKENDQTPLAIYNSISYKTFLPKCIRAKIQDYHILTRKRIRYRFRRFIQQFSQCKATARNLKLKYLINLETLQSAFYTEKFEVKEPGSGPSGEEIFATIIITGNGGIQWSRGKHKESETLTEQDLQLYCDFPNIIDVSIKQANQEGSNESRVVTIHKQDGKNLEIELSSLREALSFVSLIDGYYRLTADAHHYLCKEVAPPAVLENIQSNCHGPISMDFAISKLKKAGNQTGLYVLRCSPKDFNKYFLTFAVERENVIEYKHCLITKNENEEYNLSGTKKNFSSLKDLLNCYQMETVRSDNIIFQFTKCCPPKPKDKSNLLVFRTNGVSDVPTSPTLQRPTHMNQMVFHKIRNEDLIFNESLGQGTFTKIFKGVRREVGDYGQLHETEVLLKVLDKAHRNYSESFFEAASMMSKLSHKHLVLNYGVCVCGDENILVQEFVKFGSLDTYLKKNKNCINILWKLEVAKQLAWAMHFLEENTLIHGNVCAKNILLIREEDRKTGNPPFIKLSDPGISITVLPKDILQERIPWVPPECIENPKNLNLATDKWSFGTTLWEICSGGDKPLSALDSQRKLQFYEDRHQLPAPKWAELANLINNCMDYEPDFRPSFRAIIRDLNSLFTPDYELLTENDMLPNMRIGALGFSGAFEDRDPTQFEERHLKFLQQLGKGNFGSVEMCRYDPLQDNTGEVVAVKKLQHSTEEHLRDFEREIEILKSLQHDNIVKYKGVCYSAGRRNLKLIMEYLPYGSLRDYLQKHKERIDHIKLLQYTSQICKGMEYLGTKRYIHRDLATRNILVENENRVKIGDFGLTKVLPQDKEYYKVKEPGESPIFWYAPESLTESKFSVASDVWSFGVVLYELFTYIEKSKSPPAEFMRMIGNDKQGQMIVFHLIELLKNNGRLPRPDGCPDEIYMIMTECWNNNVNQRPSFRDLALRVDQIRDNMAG

Row | Sequence | phosphorylation enrichment
1 | ALMGLYHGQVL [HADHA_Y343] | 0.596
2 | TVVVPYEPPEV [TP53_Y220_S215T] | 1.35
3 | PATINYPFEKG [NDUFS8_Y84] | 0.776
4 | GSRGKYFSGFR [ATM_Y332_S333F] | 0.885
5 | QLQTNYPSSDN [MAX_Y115] | 0.773
6 | GYDHSYYFIAT [ESD_Y262] | 6.79
7 | IFGVSYGEFRF [CFTR_Y512_D513G_YF] | 0.99
8 | RPYSPYIIRGM [LRP5_Y1531_R1529S] | 0.508
9 | RHPLDYLRQYP [NARS2_Y138_E137D] | 1.01
10 | ISPPVYLTNEW [NRK_Y885] | 1.1
11 | SMGHRYIEVFR [HNRNPF_Y82_K87R] | 0.688
12 | PPVVNYEEDAR [FER_Y402] | 1.4
13 | ALVFLSFCIIF [SIGLEC12_Y494_Y494S] | 0.871
14 | PEADKYHLTFA [FGG_Y300_R301H_YF] | 1.98
15 | LQPNNCQFCGG [CSF1R_Y969_Y969C] | 1.05
16 | VASSLYDIFAR [GLB1_Y294_L297F] | 0.927
17 | YIRKDYEACKA [BBS4_Y48] | 0.407

Row | Sequence | phosphorylation enrichment
18 | IIRQLYLKWHP [SACS_Y4333_R4331Q] | 1.01
19 | AVLSLYASGRN [ACTA1_Y145_T150N] | 0.958
20 | GGFTRYCDGKK [PROS1_Y266_C265R_YF] | 0.653
21 | LKMLVYMDMSK [LRRC7_Y234_L235M] | 1.85
22 | PRIKTYMRPSP [TDP1_Y497_H493R] | 0.49
23 | DRPSEYAARQL [ANXA13_Y90] | 0.498
24 | ADEEFYEIIAA [FEStide_F_2014] | 1.09
25 | KFANSYRMEPL [TCTE3_Y87] | 0.774
26 | SYKNKYGMVAQ [APOB_Y276] | 0.483
27 | SKKVRYVVSKA [BARD1_Y156] | 0.482
28 | CGASGYSATST [CERT1_Y143_S138C] | 1.06
29 | NGLVAYKDGKL [PMM2_Y76] | 0.528
30 | EFKDAYTFAAD [BRDT_Y335_K336T_YF] | 0.835
31 | ETLLFYGCRRS [POR_Y564_YF] | 0.659
32 | NVQIVYKPVDL [MAPT_Y627_S622N] | 0.796
33 | ALEHKYWALGQ [MAP1A_Y1555_Q1553H] | 0.709

target: FGFR1 (UniProt P11362); experiment: as above
Sequence (P11362 whole entry, looked up): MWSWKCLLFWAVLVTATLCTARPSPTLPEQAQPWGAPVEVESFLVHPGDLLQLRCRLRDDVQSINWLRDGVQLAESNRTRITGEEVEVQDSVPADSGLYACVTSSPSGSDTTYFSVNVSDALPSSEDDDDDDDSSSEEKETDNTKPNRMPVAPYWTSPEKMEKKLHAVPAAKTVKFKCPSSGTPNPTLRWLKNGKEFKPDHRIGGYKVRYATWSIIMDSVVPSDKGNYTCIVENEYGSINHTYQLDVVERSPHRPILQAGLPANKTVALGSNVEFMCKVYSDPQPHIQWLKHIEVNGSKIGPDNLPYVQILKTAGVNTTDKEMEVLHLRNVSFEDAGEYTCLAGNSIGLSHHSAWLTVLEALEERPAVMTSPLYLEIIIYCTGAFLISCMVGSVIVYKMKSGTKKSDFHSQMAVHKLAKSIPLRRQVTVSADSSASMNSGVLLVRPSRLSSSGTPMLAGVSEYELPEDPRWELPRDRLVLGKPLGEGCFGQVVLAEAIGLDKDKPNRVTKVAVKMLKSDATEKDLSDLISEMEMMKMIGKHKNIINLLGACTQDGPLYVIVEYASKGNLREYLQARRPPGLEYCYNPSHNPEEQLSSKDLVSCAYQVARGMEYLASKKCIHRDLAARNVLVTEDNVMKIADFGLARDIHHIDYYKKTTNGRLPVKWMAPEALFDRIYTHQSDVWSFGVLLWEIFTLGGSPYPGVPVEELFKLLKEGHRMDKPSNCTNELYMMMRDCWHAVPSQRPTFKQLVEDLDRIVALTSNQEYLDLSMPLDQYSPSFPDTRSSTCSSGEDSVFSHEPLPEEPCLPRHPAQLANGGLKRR

Row | Sequence | phosphorylation enrichment
34 | ALMGLYHGQVL [HADHA_Y343] | 0.625
35 | TVVVPYEPPEV [TP53_Y220_S215T] | 0.528
36 | PATINYPFEKG [NDUFS8_Y84] | 0.521
37 | GSRGKYFSGFR [ATM_Y332_S333F] | 0.415
38 | QLQTNYPSSDN [MAX_Y115] | 0.642
39 | GYDHSYYFIAT [ESD_Y262] | 11.1
40 | IFGVSYGEFRF [CFTR_Y512_D513G_YF] | 0.383
41 | RPYSPYIIRGM [LRP5_Y1531_R1529S] | 0.399
42 | RHPLDYLRQYP [NARS2_Y138_E137D] | 0.405
43 | ISPPVYLTNEW [NRK_Y885] | 0.704
44 | SMGHRYIEVFR [HNRNPF_Y82_K87R] | 0.53
45 | PPVVNYEEDAR [FER_Y402] | 0.569
46 | ALVFLSFCIIF [SIGLEC12_Y494_Y494S] | 0.45
47 | PEADKYHLTFA [FGG_Y300_R301H_YF] | 0.725
48 | LQPNNCQFCGG [CSF1R_Y969_Y969C] | 0.752
49 | VASSLYDIFAR [GLB1_Y294_L297F] | 0.637
50 | YIRKDYEACKA [BBS4_Y48] | 0.466

Row | Sequence | phosphorylation enrichment
51 | IIRQLYLKWHP [SACS_Y4333_R4331Q] | 0.473
52 | AVLSLYASGRN [ACTA1_Y145_T150N] | 0.436
53 | GGFTRYCDGKK [PROS1_Y266_C265R_YF] | 0.369
54 | LKMLVYMDMSK [LRRC7_Y234_L235M] | 1.02
55 | PRIKTYMRPSP [TDP1_Y497_H493R] | 0.451
56 | DRPSEYAARQL [ANXA13_Y90] | 0.445
57 | ADEEFYEIIAA [FEStide_F_2014] | 1.5
58 | KFANSYRMEPL [TCTE3_Y87] | 0.443
59 | SYKNKYGMVAQ [APOB_Y276] | 0.385
60 | SKKVRYVVSKA [BARD1_Y156] | 0.292
61 | CGASGYSATST [CERT1_Y143_S138C] | 0.457
62 | NGLVAYKDGKL [PMM2_Y76] | 0.431
63 | EFKDAYTFAAD [BRDT_Y335_K336T_YF] | 0.508
64 | ETLLFYGCRRS [POR_Y564_YF] | 0.621
65 | NVQIVYKPVDL [MAPT_Y627_S622N] | 0.532
66 | ALEHKYWALGQ [MAP1A_Y1555_Q1553H] | 0.601

target: MERTK (UniProt Q12866); experiment: as above
Sequence (Q12866 whole entry, looked up): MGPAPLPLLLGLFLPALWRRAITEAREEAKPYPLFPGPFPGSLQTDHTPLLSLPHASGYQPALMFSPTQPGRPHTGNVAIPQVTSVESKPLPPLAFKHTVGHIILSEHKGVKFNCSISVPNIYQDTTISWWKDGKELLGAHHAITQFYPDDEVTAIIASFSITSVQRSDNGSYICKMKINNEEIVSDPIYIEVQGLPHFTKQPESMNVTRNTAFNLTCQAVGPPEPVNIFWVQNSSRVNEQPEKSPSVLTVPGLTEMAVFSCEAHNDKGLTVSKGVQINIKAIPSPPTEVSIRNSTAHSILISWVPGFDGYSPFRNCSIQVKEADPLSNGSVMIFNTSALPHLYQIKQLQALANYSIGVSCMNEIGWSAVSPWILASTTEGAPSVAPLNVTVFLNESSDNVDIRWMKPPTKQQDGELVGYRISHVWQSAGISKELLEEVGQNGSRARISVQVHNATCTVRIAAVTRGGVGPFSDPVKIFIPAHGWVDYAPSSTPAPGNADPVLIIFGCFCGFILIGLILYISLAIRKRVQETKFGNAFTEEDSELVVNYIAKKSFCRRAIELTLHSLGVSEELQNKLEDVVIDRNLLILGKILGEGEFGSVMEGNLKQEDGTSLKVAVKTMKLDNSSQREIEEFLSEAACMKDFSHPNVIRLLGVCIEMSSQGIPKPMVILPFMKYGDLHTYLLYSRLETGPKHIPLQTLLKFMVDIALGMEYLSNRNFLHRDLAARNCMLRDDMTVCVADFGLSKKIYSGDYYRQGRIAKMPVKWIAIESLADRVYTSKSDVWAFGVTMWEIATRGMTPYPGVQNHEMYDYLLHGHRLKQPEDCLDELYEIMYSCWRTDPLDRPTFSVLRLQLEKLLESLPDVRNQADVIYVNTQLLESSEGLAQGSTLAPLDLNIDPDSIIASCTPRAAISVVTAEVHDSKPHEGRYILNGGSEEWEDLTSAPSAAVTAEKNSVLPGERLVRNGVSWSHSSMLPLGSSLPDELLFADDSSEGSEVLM

Row | Sequence | phosphorylation enrichment
67 | ALMGLYHGQVL [HADHA_Y343] | 0.648
68 | TVVVPYEPPEV [TP53_Y220_S215T] | 0.549
69 | PATINYPFEKG [NDUFS8_Y84] | 0.556
70 | GSRGKYFSGFR [ATM_Y332_S333F] | 0.481
71 | QLQTNYPSSDN [MAX_Y115] | 0.657
72 | GYDHSYYFIAT [ESD_Y262] | 4.8
73 | IFGVSYGEFRF [CFTR_Y512_D513G_YF] | 0.465
74 | RPYSPYIIRGM [LRP5_Y1531_R1529S] | 0.438
75 | RHPLDYLRQYP [NARS2_Y138_E137D] | 0.509
76 | ISPPVYLTNEW [NRK_Y885] | 0.542
77 | SMGHRYIEVFR [HNRNPF_Y82_K87R] | 0.474
78 | PPVVNYEEDAR [FER_Y402] | 0.856
79 | ALVFLSFCIIF [SIGLEC12_Y494_Y494S] | 0.449
80 | PEADKYHLTFA [FGG_Y300_R301H_YF] | 0.75
81 | LQPNNCQFCGG [CSF1R_Y969_Y969C] | 0.785
82 | VASSLYDIFAR [GLB1_Y294_L297F] | 11.4
83 | YIRKDYEACKA [BBS4_Y48] | 0.398

Row | Sequence | phosphorylation enrichment
84 | IIRQLYLKWHP [SACS_Y4333_R4331Q] | 1.08
85 | AVLSLYASGRN [ACTA1_Y145_T150N] | 0.388
86 | GGFTRYCDGKK [PROS1_Y266_C265R_YF] | 0.403
87 | LKMLVYMDMSK [LRRC7_Y234_L235M] | 0.689
88 | PRIKTYMRPSP [TDP1_Y497_H493R] | 0.44
89 | DRPSEYAARQL [ANXA13_Y90] | 0.437
90 | ADEEFYEIIAA [FEStide_F_2014] | 2.19
91 | KFANSYRMEPL [TCTE3_Y87] | 0.417
92 | SYKNKYGMVAQ [APOB_Y276] | 0.335
93 | SKKVRYVVSKA [BARD1_Y156] | 0.312
94 | CGASGYSATST [CERT1_Y143_S138C] | 0.523
95 | NGLVAYKDGKL [PMM2_Y76] | 0.429
96 | EFKDAYTFAAD [BRDT_Y335_K336T_YF] | 0.456
97 | ETLLFYGCRRS [POR_Y564_YF] | 0.424
98 | NVQIVYKPVDL [MAPT_Y627_S622N] | 0.354
99 | ALEHKYWALGQ [MAP1A_Y1555_Q1553H] | 0.596

system: Fer (mouse); experiment: as above

Row | Sequence | phosphorylation enrichment
100 | ALMGLYHGQVL [HADHA_Y343] | 0.678
101 | TVVVPYEPPEV [TP53_Y220_S215T] | 0.512
102 | PATINYPFEKG [NDUFS8_Y84] | 0.595
103 | GSRGKYFSGFR [ATM_Y332_S333F] | 0.325
104 | QLQTNYPSSDN [MAX_Y115] | 0.551
105 | GYDHSYYFIAT [ESD_Y262] | 1.1
106 | IFGVSYGEFRF [CFTR_Y512_D513G_YF] | 0.504
107 | RPYSPYIIRGM [LRP5_Y1531_R1529S] | 1.75
108 | RHPLDYLRQYP [NARS2_Y138_E137D] | 0.594
109 | ISPPVYLTNEW [NRK_Y885] | 0.698
110 | SMGHRYIEVFR [HNRNPF_Y82_K87R] | 0.483
111 | PPVVNYEEDAR [FER_Y402] | 0.585
112 | ALVFLSFCIIF [SIGLEC12_Y494_Y494S] | 0.39
113 | PEADKYHLTFA [FGG_Y300_R301H_YF] | 0.802
114 | LQPNNCQFCGG [CSF1R_Y969_Y969C] | 0.348
115 | VASSLYDIFAR [GLB1_Y294_L297F] | 3.12
116 | YIRKDYEACKA [BBS4_Y48] | 0.403

Row | Sequence | phosphorylation enrichment
117 | IIRQLYLKWHP [SACS_Y4333_R4331Q] | 0.4
118 | AVLSLYASGRN [ACTA1_Y145_T150N] | 0.549
119 | GGFTRYCDGKK [PROS1_Y266_C265R_YF] | 0.436
120 | LKMLVYMDMSK [LRRC7_Y234_L235M] | 0.842
121 | PRIKTYMRPSP [TDP1_Y497_H493R] | 0.378
122 | DRPSEYAARQL [ANXA13_Y90] | 0.341
123 | ADEEFYEIIAA [FEStide_F_2014] | 7.22
124 | KFANSYRMEPL [TCTE3_Y87] | 0.465
125 | SYKNKYGMVAQ [APOB_Y276] | 0.398
126 | SKKVRYVVSKA [BARD1_Y156] | 0.36
127 | CGASGYSATST [CERT1_Y143_S138C] | 0.675
128 | NGLVAYKDGKL [PMM2_Y76] | 0.457
129 | EFKDAYTFAAD [BRDT_Y335_K336T_YF] | 0.477
130 | ETLLFYGCRRS [POR_Y564_YF] | 0.465
131 | NVQIVYKPVDL [MAPT_Y627_S622N] | 0.502
132 | ALEHKYWALGQ [MAP1A_Y1555_Q1553H] | 0.492
